Key:
OX2 = details: in words; cited from earlier work
Source text: Among these, a family of neuroexcitatory peptides known as orexins (or hypocretins) is critically involved in regulating sleep and wakefulness, energy homeostasis, and reward. Orexin signaling is mediated by two closely related G protein-coupled receptors (GPCRs) – OX1 and OX2 (orexin) receptors – which are strongly conserved among mammals. While orexin cell bodies are concentrated in the hypothalamic area, orexin receptors are widely expressed in the central nervous system (CNS). Their endogenous ligands are two peptides, named ...

hOX2 [1] = target: T1, hOX2 (Homo sapiens, UniProt O43614); experiment: Radioligand competitive binding assay ([3H]EMPA); parameters: expressed in transfected cells; membranes; details: control ligands; HEK-293-hOX2 membranes, [3H]EMPA 2 nM, 60 min rt, 10^-9 to 10^-6 M; two independent experiments in triplicates
T1 sequence (O43614 1-444): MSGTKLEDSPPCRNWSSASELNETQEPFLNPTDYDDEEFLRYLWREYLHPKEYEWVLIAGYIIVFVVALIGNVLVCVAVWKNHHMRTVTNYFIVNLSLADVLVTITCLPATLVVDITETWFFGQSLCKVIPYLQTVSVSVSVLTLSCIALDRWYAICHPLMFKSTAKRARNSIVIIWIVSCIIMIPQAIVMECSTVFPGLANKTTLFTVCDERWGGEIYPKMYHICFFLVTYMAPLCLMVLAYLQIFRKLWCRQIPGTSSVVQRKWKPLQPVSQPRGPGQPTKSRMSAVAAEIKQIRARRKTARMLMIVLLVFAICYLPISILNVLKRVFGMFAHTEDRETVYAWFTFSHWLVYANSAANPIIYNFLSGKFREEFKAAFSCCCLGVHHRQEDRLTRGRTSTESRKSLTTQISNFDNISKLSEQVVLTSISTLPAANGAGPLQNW
Source text: The affinity towards OX2 was studied in a competitive radioligand binding assay on membranes derived from HEK-293 cells stably transfected with the human receptor. [^3H]EMPA, an OX2-selective orthosteric antagonist, was used as radioactive tracer to quantify residual binding after competitive displacement in the presence of the unlabeled ligands.^3 Wild-type OX-B and almorexant, a non-selective OX1 and OX2 antagonist, served as controls.^4
[^3H]EMPA (specific activity 27 Ci/mmol) and almorexant were synthesized at Janssen Research & Development LLC (San Diego, CA), while orexin-B was obtained from Bachem (Torrance, CA).
Cell membranes were prepared from a stable pool of HEK-293 cells transfected with the human OX2. Test compounds were dissolved in DMSO (10 mM stock solutions) and diluted in Dulbecco’s phosphate-buffered saline supplemented with 0.1% bovine serum albumin (BSA). Competition studies were performed by incubating the membranes with the OX2-selective antagonist [^3H]EMPA (2 nM) and different concentrations of the test compounds (7 concentrations ranging from 10^−9 to 10^−6 M). After a 60-minute incubation at rt, binding reactions were filtered to separate the excess of free ligand from the membranes. Filters were then counted for radioactivity in a scintillation counter. Nonspecific binding was determined in the presence of 10 µM almorexant.
Specific binding was determined and plotted as a function of the concentration of the compound using GraphPad Prism v8.3.1 (GraphPad Software, San Diego, USA). Data were analyzed by nonlinear regression using a one-site competition model.

[2] = parameters: method as in 2 sources, one per row (each row's own in cited_ref): ref 75–77 = [75]; PMID 10087007; 75. Kastin AJ Akerstrom V Orexin A but not orexin B rapidly enters brain from blood by simple diffusion J Pharmacol Exp Ther 1999 289 219 223 10087007 || [76]; PMID 12626669; doi:10.1113/jphysiol.2002.038729; 76. John J Wu M-F Kodama T Siegel JM Intravenously administered hypocretin-1 alters brain amino acid release: an in vivo microdialysis study in rats J Physiol 2003 548 557 562 10.1113/jphysiol.2002.03 || [77]; PMID 14746374; doi:10.1093/sleep/26.8.953; 77. Fujiki N Yoshida Y Ripley B Mignot E Nishino S Effects of IV and ICV hypocretin-1 (orexin A) in hypocretin receptor-2 gene mutated narcoleptic dogs and IV hypocretin-1 replacement therapy in a hyp ||| ref 75 = [75]; PMID 10087007; 75. Kastin AJ Akerstrom V Orexin A but not orexin B rapidly enters brain from blood by simple diffusion J Pharmacol Exp Ther 1999 289 219 223 10087007; details: cited from earlier work
[3] = parameters: method as in PMID 10087007; details: cited from earlier work
human OX1 = target: T2, human OX1 (Homo sapiens, UniProt O43613); experiment: FLIPR Tetra calcium mobilization assay, CHO-K1 cells; type: cell-based; details: CHO-K1 cells stably expressing hOX1; 0.3 nM to 1 µM; two independent experiments in triplicates
T2 construct: expressed in transfected cells
T2 sequence (O43613 1-425): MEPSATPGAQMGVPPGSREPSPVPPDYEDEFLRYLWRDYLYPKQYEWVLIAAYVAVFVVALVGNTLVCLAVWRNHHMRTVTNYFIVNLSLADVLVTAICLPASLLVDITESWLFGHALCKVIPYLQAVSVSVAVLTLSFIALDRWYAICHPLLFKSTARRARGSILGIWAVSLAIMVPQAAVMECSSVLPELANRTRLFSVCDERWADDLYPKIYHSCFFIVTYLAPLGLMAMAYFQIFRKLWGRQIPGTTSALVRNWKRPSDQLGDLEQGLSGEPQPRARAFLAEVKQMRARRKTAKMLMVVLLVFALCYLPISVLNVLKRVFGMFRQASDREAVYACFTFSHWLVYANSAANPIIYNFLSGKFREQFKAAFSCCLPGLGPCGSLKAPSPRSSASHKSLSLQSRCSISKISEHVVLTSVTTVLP
Experimental: (§1) Samples of trans phOX were kept in the dark both prior to and during the whole duration of the experiment to avoid undesired photoconversion caused by environmental light. Unless differently stated, data for cis phOX were obtained by pre-illuminating the samples for 10 min with 365 nm UV light.
(§2) PFSK-1 cells were cultured in RPMI 1640 supplemented with 10% fetal bovine serum (FBS), 100 units/ml penicillin, and 100 µg/ml streptomycin. Chinese hamster ovary-K1 (CHO-K1) cells stably transfected to express human OX1 were cultured in Dulbecco’s Modified Eagle’s Medium/Nutrient Mixture F-12 Ham (DMEM/F12 1:1) medium supplemented with 10% FBS and 600 µg/ml G418. All cell lines were grown at 37 °C in 5% CO2.
(§3) Cells were plated at 50,000 cells/well in 96-well black-wall plates with poly-D-lysine-coated clear bottoms and grown overnight at 37 °C in 5% CO2. […] Calcium-mediated changes in fluorescence were monitored in a Fluorometric Imaging Plate Reader (FLIPR) Tetra instrument (Molecular Devices, USA). Fluorescence intensity was measured for 12 s to establish baseline fluorescence before addition of the test compound (20 µL/well) and further readings for a total of 155 s (excitation at 470–495 nm, detection at 515–575 nm). […]
(§4) Raw data from the FLIPR Tetra was exported as the difference between maximum and minimum fluorescence observed for each well. […] Agonist potencies (EC50) are expressed as means + SD.

OX1 receptor = details: membrane-based binding assay; ref Langmead et al., 5 (SI); cited from earlier work
Source text: Although the lack of binding with all three forms of OX-B - including the native ligand control - came unexpected, similar findings had already been observed for the OX1 receptor.

hOX2 [4] = target: T1, hOX2; experiment: FLIPR Tetra calcium mobilization assay, PFSK-1 cells; type: cell-based; details: PFSK-1 cells innately expressing hOX2; 0.3 nM to 1 µM; two independent experiments in triplicates
Experimental: as §1, §2, §3, §4

## OX-B: endogenous orexin peptide, native ligand control, obtained from Bachem
OX2
  receptor selectivity: selective for OX2
hOX2 [1]
  inhibition of [3H]EMPA binding: did not compete to bind to the receptor
[2]
  metabolism: readily metabolized
[3]
  lipophilicity relative to OX-A: not as lipophilic
Human OX1
  increase in calcium release (agonist activity): increased calcium release in a concentration-dependent manner
OX1 receptor
  occupation of OX1 orthosteric site versus [3H]SB-674042: failed to occupy the receptor orthosteric site
hOX2 [4]
  increase in calcium release (agonist activity): increased calcium release in a concentration-dependent manner

Reference: PMC11335211, “In vivo photocontrol of orexin receptors with a nanomolar light-regulated analogue of orexin-B” (Cellular and Molecular Life Sciences: CMLS, 2024)
